Several values for one entry are separate records, joined by “and”; a condition that tells them apart may be missing. Equal values may be shown once. Read-outs that look alike come from different tables or passages of the source.
Assays:
[1] = target: T1, C52Hk S. African variant (Acro) spike protein (SARS-CoV-2, UniProt P0DTC2 16-1213)
[2] = target: T2, Acro S1 spike protein (SARS-CoV-2) (SARS-CoV-2, UniProt P0DTC2 16-685); experiment: SPR (Carterra LSA); […]; 1:1 model; […]
[3] = target: T3, S1 variant B.1.1.7: UK (Acro) spike protein (SARS-CoV-2, UniProt P0DTC2 16-1213); experiment: SPR (Carterra LSA); […]; 1:1 model; […]
[4] = target: T3, S1 variant B.1.1.7: UK (Acro) spike …
[5] = target: Delta variant (Acro) spike protein (SARS-CoV-2, UniProt P0DTC2 16-1213)
[6] = target: T1, C52Hk S. African variant (Acro) spike …; experiment: SPR (Carterra LSA); […]; 1:1 model; […]
[7] = target: T2, Acro S1 spike protein (SARS-CoV-2)
[8] = target: T2, Acro S1 spike protein (SARS-CoV-2); experiment: SPR (Carterra LSA); antibody on chip, spike protein as analyte; summary table
[9] = target: T3, S1 variant B.1.1.7: UK (Acro) spike …; experiment: as above
[10] = target: T4, C52Hg Brazilian variant (Acro) spike protein (SARS-CoV-2, UniProt P0DTC2 16-1213); experiment: as above
[11] = target: T1, C52Hk S. African variant (Acro) spike …; experiment: as above
[12] = target: T4, C52Hg Brazilian variant (Acro) spike …
[13] = target: California Variant W152C_L452R_D614G
[14] = target: T4, C52Hg Brazilian variant (Acro) spike …; experiment: SPR (Carterra LSA); […]; 1:1 model; […]

B1: Antibody 1-1 (Fc fusion)
chain: EVQLVESGGGLVQPGGSLRLSCAASGSIGSINAMGWFRQAPGKEREWVAGISNGGTTNYADSVKGRFTISADNSKNTAYLQMNSLKPEDTAVYYCAADGVPEYSDYASGPVWGQGTLVTVSS
Work on B1 yielded a Kd [1] of 6.2 nM, a koff [1] of 0.000806 s⁻¹ and a kon [1] of 130000 M⁻¹ s⁻¹. The Kd [2] was 0.677 nM, the koff [2] was 0.00042 s⁻¹ and the kon [2] was 620000 M⁻¹ s⁻¹. For the same binder, the Kd [3] was 0.867 nM, the koff [3] was 0.00052 s⁻¹ and the kon [3] was 600000 M⁻¹ s⁻¹. For the same binder, the Kd [4] was 0.82 nM and 2.06 nM, the koff [4] was 0.00024 s⁻¹ and 0.000189 s⁻¹ and the Kd [5] was 2.31 nM and 2.22 nM. The koff [5] was 0.000433 s⁻¹ and 0.000358 s⁻¹, the kon [5] was 188000 M⁻¹ s⁻¹ and 161000 M⁻¹ s⁻¹ and the Kd [6] was 1.07 nM. The koff [6] was 0.00058 s⁻¹, the kon [6] was 540000 M⁻¹ s⁻¹ and the Kd [7] was 2.8 nM and 4 nM. For the same binder, the koff [7] was 0.000378 s⁻¹ and 0.000446 s⁻¹, the kon [7] was 135000 M⁻¹ s⁻¹ and 112000 M⁻¹ s⁻¹ and the Kd [8] was 0.677 nM. For the same binder, the Kd [9] was 0.867 nM, the Kd [10] was 0.691 nM and the Kd [11] was 1.07 nM. The Kd [12] was 5.57 nM and 9.51 nM, the koff [12] was 0.000724 s⁻¹ and 0.000956 s⁻¹ and the kon [12] was 130000 M⁻¹ s⁻¹ and 100000 M⁻¹ s⁻¹. The IC50 [13] was 4.4 nM, the Kd [14] was 0.691 nM and the koff [14] was 0.00038 s⁻¹. The kon [14] was 550000 M⁻¹ s⁻¹.

B2: Antibody 1-15 (Fc fusion)
chain: EVQLVESGGGLVQPGGSLRLSCAASGGIFSDMFMGWFRQAPGKEREFVATIDWSGDTAFYADSVKGRFTISADNSKNTAYLQMNSLKPEDTAVYYCAVDLSGDAVYDWGQGTLVTVSS
With B2 the Kd [2] was 10.4 nM, the koff [2] was 0.00094 s⁻¹ and the kon [2] was 90000 M⁻¹ s⁻¹. The Kd [3] was 0.828 nM, the koff [3] was 0.00024 s⁻¹ and the kon [3] was 290000 M⁻¹ s⁻¹. The Kd [4] was 0.708 nM and 0.82 nM, the koff [4] was 5.5e-05 s⁻¹ and the kon [4] was 77700 M⁻¹ s⁻¹. For the same binder, the Kd [6] was 1.04 nM, the koff [6] was 0.00028 s⁻¹ and the kon [6] was 270000 M⁻¹ s⁻¹. For the same binder, the Kd [7] was 5.43 nM and 10.9 nM, the koff [7] was 0.000339 s⁻¹ and 0.000547 s⁻¹ and the kon [7] was 62400 M⁻¹ s⁻¹ and 50200 M⁻¹ s⁻¹. It also gave a Kd [8] of 10.4 nM, a Kd [9] of 0.828 nM and a Kd [10] of 1.04 nM. It also gave a Kd [11] of 1.4 nM, a koff [12] of 1e-05 s⁻¹ and an IC50 [13] of 66.7 nM. The Kd [14] was 1.04 nM, the koff [14] was 0.00028 s⁻¹ and the kon [14] was 270000 M⁻¹ s⁻¹.

B3: Antibody 1-7 (Fc fusion)
chain: EVQLVESGGGLVQPGGSLRLSCAASGGTFSSIGMGWFRQAPGKEREFVAAISWDGGATAYADSVKGRFTISADNSKNTVYLQMNSLKPEDTAVYYCAKEDVGKPFDWGQGTLVTVSS
B3 was tested, and the Kd [1] was 8.2 nM and 7.9 nM, the koff [1] was 0.000459 s⁻¹ and 0.000521 s⁻¹ and the kon [1] was 56000 M⁻¹ s⁻¹ and 66000 M⁻¹ s⁻¹. It also gave a Kd [2] of 1.31 nM, a koff [2] of 0.00047 s⁻¹ and a kon [2] of 360000 M⁻¹ s⁻¹. For the same binder, the Kd [3] was 1.11 nM, the koff [3] was 0.0004 s⁻¹ and the kon [3] was 360000 M⁻¹ s⁻¹. For the same binder, the kon [4] was 144000 M⁻¹ s⁻¹ and 188000 M⁻¹ s⁻¹, the Kd [5] was 0.114 nM and 0.0579 nM and the koff [5] was 1.87e-05 s⁻¹ and 1e-05 s⁻¹. The kon [5] was 164000 M⁻¹ s⁻¹ and 173000 M⁻¹ s⁻¹, the Kd [6] was 1.36 nM and the koff [6] was 0.00049 s⁻¹. The kon [6] was 360000 M⁻¹ s⁻¹, the kon [7] was 130000 M⁻¹ s⁻¹ and 161000 M⁻¹ s⁻¹ and the Kd [8] was 1.31 nM. For the same binder, the Kd [9] was 1.11 nM, the Kd [10] was 0.962 nM and the Kd [11] was 1.36 nM. For the same binder, the Kd [12] was 8.53 nM and 12.5 nM, the koff [12] was 0.00081 s⁻¹ and 0.00121 s⁻¹ and the kon [12] was 95000 M⁻¹ s⁻¹ and 96200 M⁻¹ s⁻¹. For the same binder, the IC50 [13] was 0.111 nM, the Kd [14] was 0.962 nM and the koff [14] was 0.00025 s⁻¹. The kon [14] was 260000 M⁻¹ s⁻¹.

— patent publication US20230192819A1 (TWIST BIOSCIENCE, published 2023)
